Test results reported in US20220387586A1.

Tests used:
[1] = target: human Fc tagged human Lag3 extra cellular domain (human) (UniProt P18627); assay: FACS, inhibition of biotinylated Lag3:Fc binding to MHC-II on A375 cells (competitor MHC-II); control at 10 µg/ml
[2] = target: cynomolgus LAG3 on cells (cynomolgus); assay: flow cytometry on activated cynomolgus PBMC, 10 µg/ml; control (only 2nd Ab (hu): 7.62)

Sequence of human Fc tagged human Lag3 extra cellular domain (human) (P18627 29-450): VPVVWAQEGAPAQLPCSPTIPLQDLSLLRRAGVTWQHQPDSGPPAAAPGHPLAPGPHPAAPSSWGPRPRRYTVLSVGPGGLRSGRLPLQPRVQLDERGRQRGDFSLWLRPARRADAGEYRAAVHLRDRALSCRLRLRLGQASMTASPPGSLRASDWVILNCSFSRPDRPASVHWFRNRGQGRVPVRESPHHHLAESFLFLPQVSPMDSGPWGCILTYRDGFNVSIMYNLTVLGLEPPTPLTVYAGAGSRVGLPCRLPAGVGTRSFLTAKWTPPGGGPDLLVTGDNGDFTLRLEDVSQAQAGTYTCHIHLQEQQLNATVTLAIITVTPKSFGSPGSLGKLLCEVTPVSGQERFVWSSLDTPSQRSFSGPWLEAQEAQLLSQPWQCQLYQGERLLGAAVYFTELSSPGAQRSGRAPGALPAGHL

Substance	% Inhibition [1]	% positive cyno cells (PBLs) after CD3/CD28 activation [2]
human IgG1 isotype control (Sigma, cat.no. #I5154) (antibody)	-2.9%	–
DP47 (human isotype) (antibody)	–	9.19%
